Test results published in patent CN102827282A (LIN HONG, dated 2012).

Molecular target: T1, 重组人Trop-2蛋白 (human, UniProt P09758 27-274, limits assumed)
T1 construct: Purified recombinant protein coated on ELISA plates; also called recombinant human Trop-2 protein; 重组的Trop-2蛋白
T1 sequence (looked up): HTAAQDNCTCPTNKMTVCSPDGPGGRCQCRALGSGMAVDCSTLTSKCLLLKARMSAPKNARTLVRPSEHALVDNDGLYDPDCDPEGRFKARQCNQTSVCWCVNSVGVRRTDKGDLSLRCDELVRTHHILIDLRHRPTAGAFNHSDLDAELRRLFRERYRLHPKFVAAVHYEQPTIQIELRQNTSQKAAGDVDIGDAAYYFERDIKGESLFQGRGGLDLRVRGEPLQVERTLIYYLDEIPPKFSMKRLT
Test: phage ELISA of single clones after five rounds of panning on recombinant human Trop-2

B1: 抗Trop-2的特异性人源Fab抗体 (Fab, V domains shown)
VH: QVQLVESGGGVVQPGRSLRLSCAASGFTFSSYGMHWVRQAPGKGLEWVAVIWYDGSNKYYADSVKGRFTISRDNSKNTLYLQMNSLRAEDTAVYYCARDPGWGFDYWGQGTLVTVSS
VL: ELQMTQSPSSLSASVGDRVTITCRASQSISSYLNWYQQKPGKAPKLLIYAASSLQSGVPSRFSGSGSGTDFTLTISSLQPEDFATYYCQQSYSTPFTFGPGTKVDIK
notes: also called 抗Trop-2抗体Fab; pComb3x-Fab
- binding result: binds
